The target in assay [1] is T1, human αvβ6 on 293F:huβ6 cells (human, UniProt P06756 31-1048; P18564 22-788).
T1 chain 1: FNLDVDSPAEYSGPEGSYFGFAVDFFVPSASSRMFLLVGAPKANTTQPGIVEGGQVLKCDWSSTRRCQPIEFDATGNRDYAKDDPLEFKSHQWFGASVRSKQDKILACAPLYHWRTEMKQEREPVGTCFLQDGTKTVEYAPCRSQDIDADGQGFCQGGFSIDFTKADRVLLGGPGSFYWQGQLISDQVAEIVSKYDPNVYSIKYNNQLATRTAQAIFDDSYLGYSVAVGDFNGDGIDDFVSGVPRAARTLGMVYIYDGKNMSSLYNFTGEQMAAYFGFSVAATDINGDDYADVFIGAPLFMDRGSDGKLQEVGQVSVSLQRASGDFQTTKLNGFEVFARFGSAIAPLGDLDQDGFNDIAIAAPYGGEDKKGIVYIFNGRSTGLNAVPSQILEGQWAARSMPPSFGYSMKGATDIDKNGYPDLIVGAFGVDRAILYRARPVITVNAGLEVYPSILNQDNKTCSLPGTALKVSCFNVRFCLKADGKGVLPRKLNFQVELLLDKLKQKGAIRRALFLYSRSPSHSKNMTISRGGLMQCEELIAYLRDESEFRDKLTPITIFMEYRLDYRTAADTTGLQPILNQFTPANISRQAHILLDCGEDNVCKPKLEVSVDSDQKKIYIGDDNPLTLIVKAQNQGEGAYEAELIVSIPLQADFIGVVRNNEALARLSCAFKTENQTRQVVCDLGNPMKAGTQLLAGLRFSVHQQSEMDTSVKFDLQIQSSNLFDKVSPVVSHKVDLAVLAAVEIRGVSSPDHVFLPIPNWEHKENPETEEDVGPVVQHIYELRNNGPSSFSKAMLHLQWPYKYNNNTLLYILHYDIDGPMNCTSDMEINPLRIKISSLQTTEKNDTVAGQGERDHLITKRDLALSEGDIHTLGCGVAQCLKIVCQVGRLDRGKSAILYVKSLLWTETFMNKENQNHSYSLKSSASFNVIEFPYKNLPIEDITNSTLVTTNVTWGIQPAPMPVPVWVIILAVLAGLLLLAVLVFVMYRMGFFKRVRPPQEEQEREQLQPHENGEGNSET
T1 chain 2: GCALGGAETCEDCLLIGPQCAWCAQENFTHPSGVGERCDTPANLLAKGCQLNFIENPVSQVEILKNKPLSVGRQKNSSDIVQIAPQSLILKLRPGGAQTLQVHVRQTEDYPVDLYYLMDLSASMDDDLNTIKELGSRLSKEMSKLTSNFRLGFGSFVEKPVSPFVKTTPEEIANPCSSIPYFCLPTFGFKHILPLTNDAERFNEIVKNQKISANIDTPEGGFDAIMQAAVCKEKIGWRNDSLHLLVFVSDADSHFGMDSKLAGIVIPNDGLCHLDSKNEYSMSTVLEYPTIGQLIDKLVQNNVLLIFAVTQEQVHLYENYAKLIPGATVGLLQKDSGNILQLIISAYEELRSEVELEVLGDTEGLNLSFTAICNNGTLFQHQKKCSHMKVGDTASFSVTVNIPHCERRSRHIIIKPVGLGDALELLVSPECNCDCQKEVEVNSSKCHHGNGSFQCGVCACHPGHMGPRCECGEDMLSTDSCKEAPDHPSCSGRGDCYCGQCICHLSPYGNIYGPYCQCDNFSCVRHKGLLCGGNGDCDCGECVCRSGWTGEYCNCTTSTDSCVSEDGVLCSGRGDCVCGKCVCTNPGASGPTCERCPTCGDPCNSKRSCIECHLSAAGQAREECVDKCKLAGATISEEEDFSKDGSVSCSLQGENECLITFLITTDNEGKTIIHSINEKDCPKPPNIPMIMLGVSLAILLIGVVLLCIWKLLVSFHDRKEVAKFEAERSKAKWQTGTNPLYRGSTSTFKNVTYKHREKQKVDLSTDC
The experiment in a line: competition binding on 293F cells; 2nM m2A2-AF647 competitor.

In assay [2] the target is T2, human αvβ6 on 293F:huβ6 cells (human, UniProt P06756 31-1048; P18564 22-788).
T2 construct: whole, on cells; also called HEK293F:huβ6
The experiment in a line: saturation binding by flow cytometry on 293F:huβ6 cells; also confirmed by competition binding. As for the experimental part: 0.1×10⁶ antigen expressing cells were aliquoted in each well of a 96-well v-bottom plate on ice. The cells were incubated for 1 hour with 2 nM AlexaFluor-647 labeled humanized 2A2 HCLG and increasing concentrations (from 4 pM-1 uM) of unlabeled humanized 2A2 HCLG antibody and h2A2-Mdpr-PEG(12)-gluc-MMAE(8) in buffer (Tris-buffered saline, 2% fetal bovine serum, 0.5 mM MnCl₂, 0.02% NaN₃). Cells were pelleted and washed 3 times with TBS/FBS. The cells were pelleted and resuspended in 125 uL of TBS/FBS. Fluorescent signal of binding was detected using a Becton Dickinson Biosciences LSR II (San Jose, CA). Percent of saturated fluorescent signal was used to determine percent labeled humanized 2A2 antibody bound to cells and to subsequently extrapolate the EC50 by fitting the data to a sigmoidal dose-response curve with variable slope using GraphPad Software (LaJolla, CA).
0.1×10⁶ antigen expressing cells were aliquoted per well into a 96-well v-bottom plate. m2A2 and h2A2 HCLG were directly labeled with AlexaFluor-647 and added to cells at concentrations ranging from 6 pM-340 nM in buffer (Tris-buffered saline, 2% fetal bovine serum, 0.5 mM MnCl₂, 0.02% NaN₃). […] Fluorescent signal of binding was detected using a Becton Dickinson Biosciences LSR II (San Jose, CA). The EC50 was calculated using GraphPad Software (LaJolla, CA).
On the technique in general: In flow cytometry, cells or beads pass a laser one at a time.

Assay [3] has as its target T1, human αvβ6 on 293F:huβ6 cells. Description: competition binding on 293F cells; 2nM m2A2-AF647 competitor.

Like-named read-outs stand apart in the source and are kept apart here.

B1: h2A2 HCLG humanized antibody (antibody, human IgG1, kappa, V domains shown)
VH: QFQLVQSGAEVKKPGASVKVSCKASGYSFTDYNVNWVRQAPGQGLEWIGVINPKYGTTRYNQKFKGRATLTVDKSTSTAYMELSSLRSEDTAVYYCTRGLNAWDYWGQGTLVTVSS
VL: DIQMTQSPSSLSASVGDRVTITCGASENIYGALNWYQQKPGKAPKLLIYGATNLEDGVPSRFSGSGSGRDYTFTISSLQPEDIATYYCQNVLTTPYTFGQGTKLEIKR
notes: Labelled with AlexaFluor-647 in the saturation assay; also called humanized 2A2 HCLG
B1: the EC50 in assay [1] and in assay [3] was 1 nM in each case. In addition, the binding result in assay [2] is “binds”.

In general, EC50 refers to the midpoint of the concentration-response curve. Higher therefore signals a less potent agent.

(Values after patent US20250242041A1 (Seagen, published 2025).)
